# Measured values taken from the DeepSol protein solubility set.
# Experiment: soluble on expression in E. coli; label from the status in PepcDB or PDB records
row,Sequence,soluble on expression in E. coli
1,MGKNDQYYAVARGKQVGIYRTWNECKTQIDGFQNARFKKFATEAEARKFVADNMSVPGSKPVTPAVSTSSATRKRTHEGTKFTEAKKMKTEEEVIDPEFANAPVVYTDGACSSNGTKNAKAGWGVYWGDDSEDNEFGPVYGAPTNNRGELIAVQKAIEKAIEKRLPKVVIKTDSNLLVQSMNIWIHGWKRKGWKTSTGSEVLNQDVLMKIDNLRQKLKVKFLHVRGHAGIDGNEKADELARKGAQMFIKRS,not soluble
2,MGKPSGERILQMKIALVMLAAGNSRRFGSNKLLYEIEGKPMYLLTLEKLKKASEKIPESEIIVVTQYEEIVKKAGEMKIPVFINPRPEDGISLSMQIGLMSVRDTDACLFTVSDQPWLEADTVVALTELFENEKKGMACIRWNGKTGNPCIFGQKYYEELMEISGDKGGKKIIKKHPEDVAYLQIRNARELQDADEPDVFTAGNLR,not soluble
3,MGKQCFVTGRKASTGNNRSHALNSSKRRWNANLQKVRILVDGKPKKVWVSARALKSGKVTRVLEHHHHHH,not soluble
4,MGKRNLDETMNESTVSEANGDATAPTTEKDEYQALCELVNPIAQPLANRKLAKKVYKLIKKASAGDKTLREGIKDVQKELRRNEKGICILAGNVSPIDVYSHIPGICEEKEIPYVYIPSREQLGLAVGHRRPSILIFVKPSGDFKELYDEVAEALRHLTVEAA,not soluble
5,MGKSASKQFHNEVLKAHNEYRQKHGVPPLKLCKNLNREAQQYSEALASTRILKHSPESSRGQCGENLAWASYDQTGKEVADRWYSEIKNYNFQQPGFTSGTGHFTAMVWKNTKKMGVGKASASDGSSFVVARYFPAGNVVNEGFFEENVLPPKK,soluble
6,MGKTNLAPGFRFHPTDVELVRYYLKRKVMGKKFQVDAIAEVDIYKFEPPDLPDKSCLGTGDLKWYFFCPREKKYPKGGKANRSTECGYWKTTGRDRDVSYNDEVTGKIRTLIYHYGKIPRGDRTDWVIHEYRLEDKVLAQKNVPQDTYVLCVLFKKNGLGPRHGSQYGAPFKEEDWSDKEEEYTQNHLVAGPSKETSLAAKASHSYAPKDGLTGVISESCVSDVPPLTATVLPPLTSDVIAYNPFSSSPLLEVPQVSLDGGELNSMLDLFSVDNDDCLLFDDFDYHNEVRHPDGFVNKEAPVFLGDGNFSGMFDLSNDQVVELQDLIQSPTPHPPSPPAQASIPDDSRSNGQTKDD,soluble
7,MGKVYVFDHPLIQHKLTYIRDKNTGTKEFRELVDEVATLMAFEITRDLPLEEVEIETPVSKARAKVIAGKKLGVIPILRAGIGMVDGILKLIPAAKVGHIGLYRDPQTLKPVEYYVKLPSDVEERDFIIVDPMLATGGSAVAAIDALKKRGAKSIKFMCLIAAPEGVKAVETAHPDVDIYIAALDERLNDHGYIVPGLGDAGDRLFGTK,soluble
8,MGKYFGTDGVRGEANVELTPELAFKLGRFGGYVLSQHETERPKVFVARDTRISGEMLESALIAGLLSVGIEVYKLGVLATPGVSYLVRTEKASAGVMISASHNPALDNGIKFFGNDGFKLADDQELEIEALLDAPEDTLPRPSAEGLGTLVDYPEGLRKYEKFLVTTGTDLSGMTVALDTANGAASVSARDVFLDLNAEIAVIGEKPNGLNINDGVGSTRPEQLQELVKETGADLGLAFDGDSDRLIAVDETGEIVDGDRIMFIIGKYLSEKGLLAHNTIVTTVMSNLGFHKALDKQGINKAITAVGDRYVVEEMRSSGYNLGGEQSGHVIIMDYNTTGDGQLTAIQLAKVMKETGKSLSELAAEVTIYPQKLVNIRVENSMKERAMEVPAIANIIAKMEDEMAGNGRILVRPSGTEPLLRVMAEAPTDAEVDYYVDTIADVVRTEIGCDN,not soluble
9,MGKYFGTDGVRGVANQELTPELAFKLGRYGGYVLAHNKGEKHPRVLVGRDTRVSGEMLESALIAGLISIGAEVMRLGIISTPGVAYLTRDMGAELGVMISASHNPVADNGIKFFGSDGFKLSDEQENEIEALLDQENPELPRPVGNDIVHYSDYFEGAQKYLSYLKSTVDVNFEGLKIALDGANGSTSSLAPFLFGDLEADTETIGCSPDGYNINEKCGSTHPEKLAEKVVETESDFGLAFDGDGDRIIAVDENGQIVDGDQIMFIIGQEMHKNQELNNDMIVSTVMSNLGFYKALEQEGIKSNKTKVGDRYVVEEMRRGNYNLGGEQSGHIVMMDYNTTGDGLLTGIQLASVIKMTGKSLSELAGQMKKYPQSLINVRVTDKYRVEENVDVKEVMTKVEVEMNGEGRILVRPSGTEPLVRVMVEAATDEDAERFAQQIADVVQDKMGLDK,not soluble
10,MGLALQHSHRWDLSPREAANLQTRLRPLVLAEDALPDEIRTVAGVDVGFEDHGRITRAAVAVLDFPSLRPSDQAIVRRPTRFPYVPGLLSFRELPALLEALERLNLLPGLILVDGHGYAHPRRFGIACHLGVLTGIPTIGVGKTRLVGTHGELAEDRGSWIPLIDGDETVGAVVRTRRGVQPVYVSVGHRLSLPTAVDWVLRCTPRYRLPETTRQAHRLASALEHHHHHH,not soluble
11,MGLGRVITRSLSSVEPALSQKLTIQPAIERSPTDLLNALSETVGPDTTAPHFAYIDDPITIPSTQSTKKTYFMAKEFGKRAARELATEWPTLFAFDRDQPQLPVFRPRHLADPLQVEPTENNLLKMISSREVKDSCILYERMRSENVDVSEKVQLELFRLVTYYNSSNVPFAEWEEFVGMRNFGEDSTSSWKSGAVADLLFETLPKTDETVSIMIAGLCKFSDHSSLERARELYKEHRAAKGKVYREAFNGLIGASSYSVGKKLVAEMISLRMTPDIFTFNALLSSAAKAGKFEDRVKAFTEIIGEMKEIGVEPALSSFHLIIKNIIDFKLLDNEKRESDEQKKTYNHQLTVAISWLNEIQNSLTGKTLKPITSTCNLFFVEAMGIHYRAANENLAENLVSIYESKANEVKMPAFTIESMFYNRQLQLAVEQSASLNRIYDLYTTMVPRLVGVNNYLSSLVFRKLAASSDRHWPLLRRVIIDGIAAGQMNGVIGEEMRKQLCNVQLHTLGTSEREQFTSLVQKLVAVWVEFSQFTEERMRRLQRKLSPSQISECALLLTRIGEQQKAYELLDLLLDETASSGDEATVYPRGHARPWAMAELFEDALRKRDTYAAATCLQIMSLTANRAKLEPLANRIFEKCNVNQEQVRIIQGFIRLRPQ,not soluble
12,MGLMKKFRDYFLEEDYEDYDEEYEAPQPEEEAPPKTAGKANVVSLQSVQKSAKVVLAEPRVYAEAQEIADHLKSRRAVIVNLQRIQHEQAKRIVDFLSGTVYAIGGDIQQVGTKIFLCTPENVDVSGSISLDGEDDRPMKRW,not soluble
13,MGLQFAYLPVEIGQVSDEKCSAFHQLMATLPGPVLAFCNSGNRARALYSRDVGTTTTPAETISAACDWEHEAAAVTEAESEAAGAAAVSAASSRDEAAGKSIPVTPACNWDNAFDIVVVGGGSAGLGVTASLLRRRSSLRIAIIEPNDKHYYQPAWTLVGGGAYAVDQTVRNTADVIPHGAEWIKAEVSGFSPNDNLVHLADGRTIGYQQLIVCPGIRLAWEKIEGIQETLGKNGVTSNYLFDLAPYTWSLTQQLKGGKALFTQPPMPIKCAGAPQKAMYLSCDYWQRQGVLDKIEVEFDSAGAVLFGVADFVPPLMEYVRKYHANLVFNSNLVKVNGPEKIATFEIKNEAGEVTRVDKPFDMLHVTPPQAAPDFLRDSPLADASGYCEVNPKTLQHTRFANIFSLGDACSSPNTKTAAAVRKQIVIVAENLLAAKDGREFHAVYDGYGACPLTVENGKVVLAEFGFGGKLLPTFPLNPAVARKLYWWFKVKLFPWLYWEGLEHHHHHH,not soluble
14,MGLSPHVEALQVLQTALQTGEGFIKVTGEVGTGKTLICRKLINELPQGFHCAYLPNPYLTPAELRWAVANELGLKYTSEIDQQQLTGLIQQQLLALSTHGHAIVLVLDEAQALPDESLEALRLFTNLETESRKLLQVVLFGQPELDERLKRQAFRQLRQRITFSYNLRPLEHHHHHH,not soluble
15,MGMEYSFGFTKIDEAQKQSMVDGVFHSVAENYDKMNDILSLGLHRMWKNSMVAWLSPPAVFHWKVLDVAGGTGDIAFRILNASRQKAHATVLDINGSMLSVGKKRAEKNGLAPLIDFVEANAEHLPFEDQSFDAYTIAFGIRNVPHIDQALREAFRVLKPGGRFLCLEFSNVEMPLLDKIYDLWSFHAIPKLGQLIANDGDAYRYLVESIRKFPKQDDFAHMINHVGFSRVSYRNLTGAIAALHSAWKILEHHHHHH,not soluble
16,MGNIANEAKLLKLDGKAYRNDFMLGNGKGHARDNLSRQRPGTSKRLSCSQLESLYSSNSMAKNIVDIPAEDLTRNGWSLKMQDDKVKALYESKLRQLKAKERLQQLFTYERLYGDGFVSIGTIEKREYSLSEPLDFENIKSVPYINAFSGKKISNRIIDEDVFSPNYGQIESFEVNNRSNNSRIHLLNNTTYSRATTIHRSRVLHQQNLRFEDELEGSSLLENLYDILTVADTSVWSVGQILYDFIFKVYKSADVRSLTPQDKLEIETKMDYQFRTEAIAIIDKEESLGKESSSVAGIGELLDFVWDYLAGAARMPKTVLKGQEGGTVTGAQYDVMNYYSRITAIQENQLRPHLEYLMRCLMWAEDECGGRLDPDSIEWSVEFNPLWNVDSKTDAEIRKLTAETDKIYIEAGVSDPDDVHEARFGRFGITETSKFNADSLSRDELDKMAAVVYENYKQDRDNEK,not soluble
17,MGNILIVKLSRRELSYLLSVKKYNDEGKPAKLSWISKDLNVSVASAYEEISHLESKGFLKKSDKGIFITDEGKKAIDSLLRAHRVIETFLVKIGLSPDQACNYTKQFDYSVPDEVIERIYEYLGKPEKCPHGENIPY,soluble
18,MGNNTIGARKSTTSKFWKCRSCIASRTTESRNNSIIQQRRNFIIRTKKEIPFPKRGASKDSCGSCHNQKNLIVCHLFLFKNHKKLFF,not soluble
19,MGNSCQNGTYGNNYQNSNRFQNDRFASRYVDGNDTEDCYSGSSRASLAGALRQGLNLKSPVLGYKTPNVRELYTLGRELGQGQFGKTYLCTEISTGCQYACKTILKSNLRCVSDIEDVRREIQIMHHLSGQKNIVTIKDTYEDEQAVHIVMELCAGGELFSKIQKRGHYSERKAAELIKIIVGIIETCHSHGVMHRDLKPENFLLLDADDEFSVKAIDFGLSVFFRPGQVFREVVGSPYYIAPEVLEKRYGPEADIWTAGVILYVLLTGVPPFWADTQSGIYEKVLDGRIDFKSNRWPRISDSAKDLIKKMLCPYPSERLKAHEVLKHPWICDNGVATNRALDPSVLPRLKQFSAMNRLKKLSLQIIAERLSEEEIVGLREMFKAMDTKNRSVVTFGELKGLKRYSSVFKDTEINDLMEAADDTTSTINWEEFIAAAVSLNKIEREKHLMAAFTYFDKDGSGFITVDKLQKACMERNMEDTFLEEMILEVDQNNDGQIDYAEFVTMMQSNNFGLGWQTVESSLNVALREAPQVY,not soluble
20,MGPQSDSRTLISTYSQQSFQQFSFEYCYHSNTPSLPFSAIFSLYWLLHPFSASTGFSKGPQSDYRTLISTYYQQSFQQFSFEYCYHSNTPSLVSLFFSHLQPFLAIFSHFQPFSASAGFSKGPQSDSRTLISTYSQQSFQQFSFEYCCLSNTRSLVSLF,not soluble
21,MGQCLGTLCTVDSATDNISSVYQLAGPVAVKESPRIAERDPKVKISVNPEEENVERPCVLYSKSNEIIKKPDIFEEIYKRTPITLSNNGRIDVAELPAGQRVIEVENNEVRDKYKKTLYEIRRKCRELQNLGAEDEETGEIIDTLLILYKDFFLLTTWKIDKYAQLRKNAAVQAYNSLPKLRADPAEFRCHVEFQYRVANELWEHFKETYIHKYEACNWAERAKVKEWDLLDSQVQTPNVEWDYLGAHGYI,not soluble
22,MGRAFEYRRAAKEKRWDKMSKVFPKLAKAITLAAKDGGSEPDTNAKLRTAILNAKAQNMPKDNIDAAIKRASSKEGNLSEITYEGKANFGVLIIMECMTDNPTRTIANLKSYFNKTQGASIVPNGSLEFMFNRKSVFECLKNEVENLKLSLEDLEFALIDYGLEELEEVEDKIIIRGDYNSFKLLNEGFESLKLPILKASLQRIATTPIELNDEQMELTEKLLDRIEDDDDVVALYTNIELEHHHHHH,soluble
